Data taken from PMC3408433, “Selective Cytotoxicity of Amidinopiperidine Based Compounds Towards Burkitt’s Lymphoma Cells Involves Proteasome Inhibition” (PLoS ONE, 2012).

Assays:
Type in all cases: biochemical
Conditions in all cases: other: substrate on purified human 20S proteasome; pH 8.0; 37.0 °C
[1] = substrate: Cc1cc(=O)oc2cc(NC(=O)[C@H](Cc3ccc(O)cc3)NC(=O)[C@@H](NC(=O)[C@H](CC(C)C)NC(=O)[C@H](CC(C)C)NC(=O)CCC(=O)O)C(C)C)ccc12; test: Proteasome activity measurement, chymotrypsin-like
Protocol: (§1) Suc-Leu-Leu-Val-Tyr-AMC, Bz-Val-Gly-Arg-AMC and Z-Leu-Leu-Glu-AMC (Bachem, Bubendorf, Switzerland) were used for the chymotrypsin-like, trypsin-like and caspase-like activites, respectively. Assay buffer consisted of TE buffer (20 mM Tris (pH = 8.0), 0.5 mM EDTA, 0.03% SDS). Substrate hydrolysis was continuously monitored at 37°C with an automated microplate reader (Tecan Safire^2). Measured fluorescence values (RFU) were plotted versus time with nonlinear regression to fit a Michaelis-Menten plot.
(§2) For the Ki determination, 25 µL of substrate at three concentrations and 25 µL of inhibitor of interest also at three different concentrations were added to the wells of a white microplate. The reaction was initiated with 50 µL of the enzyme in the assay buffer. Flourescence of the AMC release was continuously monitored at 420 nm with 320 nm excitation.
(§3) Km and Ki were calculated using SigmaPlot 11 (Enzyme Kinetics Module 1.3) and are presented as the mean of three independent experiments.

[2] = substrate: Cc1cc(=O)oc2cc(NC(=O)[C@H](CCCNC(=N)N)NC(=O)CNC(=O)[C@@H](NC(=O)c3ccccc3)C(C)C)ccc12; test: Proteasome activity measurement, trypsin-like
Protocol: as §1, §2, §3

[3] = substrate: Cc1cc(=O)oc2cc(NC(=O)[C@H](CCC(=O)O)NC(=O)[C@H](CC(C)C)NC(=O)[C@H](CC(C)C)NC(=O)OCc3ccccc3)ccc12; test: Proteasome activity measurement, caspase-like
Protocol: as §1, §2, §3

B1: chymotrypsin-like activity of human 20S proteasome (Homo sapiens) (protein)
chain: TTTLAFKFRHGVIVAADSRATAGAYIASQTVKKVIEINPYLLGTMAGGAADCSFWERLLARQCRIYELRNKERISVAAASKLLANMVYQYKGMGLSMGTMICGWDKRGPGLYYVDSEGNRISGATFSVGSGSVYAYGVMDRGYSYDLEVEQAYDLARRAIYQATYRDAYSGGAVNLYHVREDGWIRVSSDNVADLHEKYSGSTP
notes: purchased Boston Biochem, Inc
[1]
  Km: 100 ± 12 µM

B2: trypsin-like activity of human 20S proteasome (Homo sapiens) (protein)
chain: TTIAGVVYKDGIVLGADTRATEGMVVADKNCSKIHFISPNIYCCGAGTAADTDMTTQLISSNLELHSLSTGRLPRVVTANRMLKQMLFRYQGYIGAALVLGGVDVTGPHLYSIYPHGSTDKLPYVTMGSGSLAAMAVFEDKFRPDMEEEEAKNLVSEAIAAGIFNDLGSGSNIDLCVISKNKLDFLRPYTVPNKKGTRLGRYRCEKGTTAVLTEKITPLEIEVLEETVQTMDTS
notes: purchased Boston Biochem, Inc
[2]
  Km: 44 ± 5 µM

B3: caspase-like activity of human 20S proteasome (Homo sapiens) (protein)
chain: TTIMAVQFDGGVVLGADSRTTTGSYIANRVTDKLTPIHDRIFCCRSGSAADTQAVADAVTYQLGFHSIELNEPPLVHTAASLFKEMCYRYREDLMAGIIIAGWDPQEGGQVYSVPMGGMMVRQSFAIGGSGSSYIYGYVDATYREGMTKEECLQFTANALALAMERDGSSGGVIRLAAIAESGVERQVLLGDQIPKFAVATLPPA
notes: purchased Boston Biochem, Inc
[3]
  Km: 37 ± 9 µM
